Here are results for three molecules from article PMC7280309 (Nature Communications, 2020).

The labels stand for the following.
B1: DotY (natural protein)
chain: MPKYTLPTRDALLKAMQVGETSIEAAEYMATRFEQILTKAKLLPECNDMLEKIKEYAQFVKFKLLSSAQVWSGQERPTSDYQNTQENKAEFLASHLEGLPSGLKLEVAIGDDAKILRGFSSNGKMVEGDQLKTMDGLLEGWLAKNSLAISGGAVVKIDNTGNQTKVDPQEIRQLINDSEKGVAKYFADKGVGMEVAQRTYQEPKALETKREEIRQEIESGAEAPTTQSIR
B3: DotZ (natural protein)
chain: MDEIKKDDELSQWLSTYGTITAERILGRYNISLPQDEILEAINIPSSFYRHLLQIPLKNVLNGIVIQQASDYHVYAQKLLIDYLLSGESSKEPDSQGAGTRESLEDERQRLVQLGDEFHKLELEQDNLIASSQASLMKISIDWNTKLETTLSKLNSLYKNTNSKIKKNAIRKALIKAFIHCDLVKDQSQKNKYQLIDKLNQTLAVSVGAELKESILTNLSELFQILEALNTKLDEFTDRTNHLSQQAKSFRTQFYEVILRIIELIKLLPEYKIDPAQDAINREPLYFDRTIGER

Assay [1] deals with B3. The assay is described as follows: cryo-EM structure. Conditions: both partners purified.
Assay [2] concerns the target T1, DotL with a C-terminal Strep-tag (Legionella pneumophila, UniProt Q5ZYC6 1-783).
T1 sequence: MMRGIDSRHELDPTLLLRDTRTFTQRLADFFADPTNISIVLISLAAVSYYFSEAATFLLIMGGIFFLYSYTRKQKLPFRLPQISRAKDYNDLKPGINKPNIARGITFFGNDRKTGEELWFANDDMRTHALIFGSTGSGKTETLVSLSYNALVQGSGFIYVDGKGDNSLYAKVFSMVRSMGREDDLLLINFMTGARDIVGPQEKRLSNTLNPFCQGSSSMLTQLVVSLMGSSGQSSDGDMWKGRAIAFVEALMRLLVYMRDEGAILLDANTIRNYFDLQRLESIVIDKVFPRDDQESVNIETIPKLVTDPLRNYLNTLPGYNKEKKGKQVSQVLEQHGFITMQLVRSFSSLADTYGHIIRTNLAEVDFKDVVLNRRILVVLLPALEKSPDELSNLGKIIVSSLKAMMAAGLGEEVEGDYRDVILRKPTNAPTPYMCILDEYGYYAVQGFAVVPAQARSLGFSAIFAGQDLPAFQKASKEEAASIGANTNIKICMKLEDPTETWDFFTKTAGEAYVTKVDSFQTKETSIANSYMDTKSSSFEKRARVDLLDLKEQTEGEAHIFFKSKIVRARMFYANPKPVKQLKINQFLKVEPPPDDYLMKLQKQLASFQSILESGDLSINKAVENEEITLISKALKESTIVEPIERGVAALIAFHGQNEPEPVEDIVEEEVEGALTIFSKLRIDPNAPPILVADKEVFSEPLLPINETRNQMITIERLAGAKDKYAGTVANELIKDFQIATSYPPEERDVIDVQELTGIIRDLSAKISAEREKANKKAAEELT
In words: affinity purification with mass spectrometry. The following applies: partners not purified.

Assay [3] addresses B1. In words: cryo-EM structure. The following applies: both partners purified.

On to B1, for which, in assay [1], the binding result is recorded as “binds”.

B2: DotN (natural protein)
chain: MNVNQTMADNQQRCELKLIASPGSWRLYSARKIDERFKSYEQKIFQRDRYTCQFCGFQARLYQDIVNLDGDYTNNRLSNLVTACCFCAQCFFVESVGVGGYGGGTLIYLPELTQAELNSLCHVLFCAITNDTGYKSSAQNIYRSFKFRSQIVEEKFGEGTSDPAIFGQLMIDSGVNSEEIREKLFKNIRLLPSRAKFRKQIEKWAASALEEIAD
As for B2, the binding result in assay [2], in assay [1] and in assay [3] was “binds” each time. As for B3, the binding result in assay [2] is “binds”.
